Where no end group is shown, it is not given here.
T1: peptide corresponding to amino acid residues 157-174 of human HMGB1 (human)
T1 construct: Non-biotinylated; also called HMGB1 157-174 peptide; Human HMGB1-157-174
T1 peptide: KDIAAYRAKGKPDAAKKG

T2: peptide corresponding to amino acid residues 143-160 of human HMGB1 (human)
T2 construct: Non-biotinylated
T2 peptide: PYEKKAAKLKEKYEKDIA

T3: peptide corresponding to amino acid residues 67-84 of human HMGB1 (human)
T3 construct: Non-biotinylated; also called HMGB1 67-84 peptide; Human HMGB1-67-84
T3 peptide: DKARYEREMKTYIPPKGE

T4: recombinant rat HMGB1 (rat, UniProt P63159 1-215)
T4 sequence: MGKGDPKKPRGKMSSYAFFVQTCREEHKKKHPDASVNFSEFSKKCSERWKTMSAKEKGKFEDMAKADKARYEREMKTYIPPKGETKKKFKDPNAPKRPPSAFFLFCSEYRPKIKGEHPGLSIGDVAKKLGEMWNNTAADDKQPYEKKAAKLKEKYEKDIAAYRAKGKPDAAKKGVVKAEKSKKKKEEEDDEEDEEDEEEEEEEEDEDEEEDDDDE

T5: peptide consisting of a scrambled sequence of amino acid residues 61-78 of human HMGB1
T5 construct: Non-biotinylated; scrambled control; also called Human HMGB1-61-78_scr
T5 peptide: AKDYMEARKDTEYKMARE

T6: peptide corresponding to amino acid residues 53-70 of human HMGB1 (human)
T6 construct: Non-biotinylated; also called HMGB1 53-70 peptide; huHMGB1-53-70
T6 peptide: SAKEKGKFEDMAKADKAR

T7: CHO HMGB2 (Chinese hamster (CHO cells), UniProt A0A8C2QD03 1-210)
T7 construct: also called non-recombinant (natural) HMGB2 from Chinese Hamster Ovary (CHO) cells
T7 sequence: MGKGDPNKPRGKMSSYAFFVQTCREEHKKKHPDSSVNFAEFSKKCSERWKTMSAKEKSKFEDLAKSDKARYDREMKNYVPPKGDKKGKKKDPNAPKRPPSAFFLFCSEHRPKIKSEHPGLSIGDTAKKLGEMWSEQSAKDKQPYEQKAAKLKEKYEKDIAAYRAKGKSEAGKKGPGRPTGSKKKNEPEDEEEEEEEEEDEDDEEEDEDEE

T8: peptide consisting of a scrambled sequence of amino acid residues 46-63 of human HMGB1
T8 construct: Non-biotinylated; scrambled control; also called Human HMGB1-46-63-scr
T8 peptide: RMKEESSAKDGWFTEMKK

T9: peptide corresponding to amino acid residues 46-63 of human HMGB2 (human, also: biotinylated (position not given here))
T9 construct: also called HMGB2 46-63 peptide; huHMGB2-46-63-B
T9 peptide: SERWKTMSAKEKSKFEDM

T10: peptide corresponding to amino acid residues 40-57 of human HMGB1 (human)
T10 construct: Non-biotinylated; also called HMGB1 40-57 peptide; Human HMGB1-40-57
T10 peptide: EFSKKCSERWKTMSAKEK

B1: 2E11 HMGB1 mAb (antibody, V domains shown)
VH: QVQLQQSGPELVRPGTSVKISCKTSGYTFLTYWMNWVKQRPGQGLEWIGQIFPASDNTYYNEMFKDKATLTVDTSSSTAYIHLSSLTSEDTAVYFCAREDSMDYWGQGTSVTVSS
VL: DIQMTQTTSSLSASLGDRVTVSCSASRGINNYLNWYQQKPDGTVKFLIYYTSSLHSGVPSRFSGSGSGTDYSLTISNLEPEDIATYYCQQYSKLPWTFGGGTKLEFK
notes: Murine hybridoma monoclonal antibody (ATCC PTA-5431); also called 2E111-1-1-2; CT3-2E11
B2: 6E6 HMGB1 mAb (antibody, V domains shown)
VH: EVQLQQSGAELVKPGASVKLSCTASGFNIKDTYMHWVKQRPEQGLEWIGRIDPANGNTKYDPKFQGKATITADTSSNTAYLQLSSLTSEDTAVYYCARGAYWGQGTLVTVSA
VL: DIVLTQSPASLAVSLGQRATISCKASQSVDYDGDSYMNWYQQKPGQPPKLLIYAASNLESGIPARFSGSGSGTDFTLNIHPVEEEDAATYYCQQSNEDPFTFGSGTKLEIK
notes: Murine hybridoma monoclonal antibody (ATCC PTA-5433); also called 6E6-7-1-1; CT3-6E6
B3: 2G7 HMGB1 mAb (antibody, V domains shown)
VH: QVQLQQSGAELVRPGSSVKISCKASGYAFSSYWMNWVKQRPGQGLEWIGQIYPGDGDTNYNGKFKGKATLTSDKSSSTAYMQLSSLTSEDSAVYFCARREPYGSYVGFGFWGQGTLVTVSA
VL: ENVLTQSPAIMSASPGEKVTMTCSASSSVSYMHWYQQKSSTSPKLWIYDTSKLASGVPGRFSGSGSGNSYSLTISSMEAEDVATYYCFQGSGYPPTFGGGTKLEIK
notes: Murine hybridoma monoclonal antibody (ATCC PTA-5432); also called 3-2G7-1-1-1; CT3-2G7
B4: peptide corresponding to amino acid residues 46-63 of human HMGB1 (peptide)
peptide: SERWKTMSAKEKGKFEDM
modifications: also: biotinylated (position not given here)
notes: also called HMGB1 46-63 peptide; huHMGB1-46-63-B
B5: peptide corresponding to amino acid residues 151-168 of human HMGB1 (peptide)
peptide: LKEKYEKDIAAYRAKGKP
modifications: also: biotinylated (position not given here)
B6: peptide corresponding to amino acid residues 61-78 of human HMGB1 (peptide)
peptide: EDMAKADKARYEREMKTY
modifications: also: biotinylated (position not given here)
notes: also called HMGB1 61-78 peptide; huHMGB1-61-78-B

Tests used:
[1] = target: B5; experiment: peptide ELISA (FIG. 13B)
Procedure: (§1) Biotinylated peptides bound to React-Bind Streptavidin-Coated Plates (Pierce, Rockford, Ill., Catalog # 15501) and non-biotinylated peptides bound to poly-D-lysine coated ELISA plates were used in anti-peptide ELISAs. Biotinylated peptides corresponding to particular 18 amino acid regions of human HMGB1, as well as a longer peptide corresponding to amino acid residues 9-85 of human HMGB1, were prepared and analyzed for binding to particular anti-HMGB1 monoclonal antibodies by ELISA. These peptides, and their respective sequences, are depicted in FIG. 13A. Poly-D-lysine coated plates were prepared by adding 60-100 μl/well of 0.1 mg/ml solution of poly-D-lysine in water. Plates were then incubated at room temperature for 5 minutes and were rinsed with water to remove the solution.
(§2) Briefly, using the molecular weight of the respective peptide, 1 mM peptide solutions were prepared in pyrogen-free water and diluted in 1× phosphate buffered saline. Plate wells were washed three times with 200 μl of PBS and 100 μl of the various peptide solutions were added to designated wells. The plates were then covered and incubated for 60 minutes at room temperature. The wells were then washed three times with PBS, 0.05% polyoxyethylenesorbitan (referred to herein as Tween 20™) using a volume greater than 100 μl. 200 μl of blocking buffer (5% nonfat dry milk in PBS, 0.05% Tween 20™) was added to each of the wells. The plates were covered and incubated for 60 minutes at room temperature. The wells were then washed three times with PBS, 0.05% Tween 20™ using a volume greater than 100 μl.

[2] = target: T1, peptide corresponding to amino acid …; experiment: peptide ELISA
[3] = target: T2, peptide corresponding to amino acid …; experiment: peptide ELISA
[4] = target: T3, peptide corresponding to amino acid …; experiment: peptide ELISA (FIG. 24)
Procedure: as §1
as §2, with “200 μl of blocking buffer (5% nonfat dry milk in PBS, 0.05% Tween 20™) was added to each of the wells. The plates were covered and incubated for 60 minutes at room temperature. The wells were then washed three times with PBS, 0.05% Tween 20™ using a volume greater than 100 μl.” left out

[5] = target: B6; experiment: peptide ELISA (FIG. 13B)
Procedure: as §1, §2

recombinant rat HMGB1 = target: T4, recombinant rat HMGB1; experiment: sandwich ELISA, mAb as capture antibody, polyclonal antibody or 6E6 as detector
Procedure: In the first method, ELISA plates were coated with a number of purified anti-HMGB1 mAbs (e.g., 2E11 HMGB1 mAb, 2G5 HMGB1 mAb, 2G7 HMGB1 mAb, 6E6 HMGB1 mAb), and incubated overnight at 4° C. The plates were then blocked with PBS, 1% BSA for one hour at 37° C. After washing, recombinant rat HMGB1 was added at the indicated concentrations, and the plates were incubated at room temperature for 1 hour. The plates were then washed and incubated with rabbit polyclonal antibodies against HMGB1 at 2 μg/ml (see U.S. Pat. Nos. 6,303,321, 6,448,223 and 6,468,533). After 1 hour at room temperature, the plates were washed and incubated for 30 minutes with goat anti-rabbit Ig-HPR (Jackson ImmunoResearch Laboratories, West Grove, Pa.) diluted at 1:1000 in PBS. After washing, the plates were developed with TMB (Invitrogen, San Diego, Calif.) and absorbance at 655 nm was measured using a plate reader.
As depicted in FIGS. 14 and 15, two different ELISA methods were used to examine the properties of particular anti-HMGB1 monoclonal antibodies. In one method, HMGB1 monoclonal antibodies 2E11 HMGB1 mAb, 2G5 HMGB1 mAb, 2G7 HMGB1 mAb, and 6E6 HMGB1 mAb, were used as capture antibodies and a polyclonal HMGB1 antibody was used as the detector antibody. […]

[6] = target: T5, peptide consisting of a scrambled …; experiment: peptide ELISA
[7] = target: T6, peptide corresponding to amino acid …; experiment: peptide ELISA
[8] = target: B4; experiment: peptide ELISA (FIG. 13B)
Procedure: as §1, §2

[9] = target: T6, peptide corresponding to amino acid …; experiment: peptide ELISA (FIGS. 22 and 23)
Procedure: as §1
as §2, with “200 μl of blocking buffer (5% nonfat dry milk in PBS, 0.05% Tween 20™) was added to each of the wells. The plates were covered and incubated for 60 minutes at room temperature. The wells were then washed three times with PBS, 0.05% Tween 20™ using a volume greater than 100 μl.” left out

CHO HMGB2 = target: T7, CHO HMGB2; experiment: Western blot
[10] = target: T8, peptide consisting of a scrambled …; experiment: peptide ELISA
[11] = target: T9, peptide corresponding to amino acid …; experiment: peptide ELISA
[12] = target: T10, peptide corresponding to amino acid …; experiment: peptide ELISA
2G7 HMGB1 mAb [13] = target: B3; experiment: competition ELISA: peptide (0.33-243 µM) with 2 µg/ml antibody, plate coated with recombinant rat HMGB1
Procedure: (§3) HMGB1 peptide binding experiments using 2G7 HMGB1 mAb were conducted. As described, biotinylated synthetic peptides corresponding to either amino acid residues 46-63 of human HMGB1 or amino acid residues 61-78 of human HMGB1 were prepared and analyzed for binding to 2G7 HMGB1 mAb (2G7) by ELISA. Briefly, 2 μg/ml of 2G7 HMGB1 mAb was added to plate wells containing either the HMGB1 46-63 peptide or the HMGB1 61-78 peptide at each of the indicated concentrations (0, 0.33, 1, 3, 9, 27, 81 and 243 μM peptide) for one hour at 25° C. to prepare antibody-peptide samples. ELISA plates were coated with 10 μg/ml of recombinant rat HMGB1, and incubated overnight at 4° C. The plates were then blocked with reconstituted milk for one hour at 37° C. Antibody-peptide samples were then added at the concentrations listed above and incubated for one hour at room temperature. The plates were then washed and incubated with Streptavidin-HRP. After washing, the plates were developed with TMB (Invitrogen, San Diego, Calif.) and absorbance at 655 nm was measured using a plate reader.

2E11 HMGB1 mAb [14] = target: B1; experiment: competition ELISA: peptide in solution against plate-bound HMGB1
2E11 HMGB1 mAb [15] = target: B1; experiment: competition ELISA: peptide in solution with the antibody, plate-bound HMGB1
2G7 HMGB1 mAb [16] = target: B3; experiment: competition ELISA: peptide in solution against plate-bound recombinant rat HMGB1
Procedure: as §3

## B1
[1]
  binding result: binds
[2]
  binding result: no binding (tested: 2 µg/ml antibody)
[3]
  binding result: no binding (tested: 2 µg/ml antibody)

## B2
[4]
  binding result: binds
[5]
  binding result: binds
Recombinant rat HMGB1
  binding result: binds
[6]
  binding result: no binding (tested: 2 µg/ml antibody)
[7]
  binding result: no binding (tested: 2 µg/ml antibody)

## B3
[8]
  binding result: binds
[9]
  binding result: binds
CHO HMGB2
  binding result: no binding (tested: 2 µg/ml antibody)
Recombinant rat HMGB1
  binding result: binds
[10]
  binding result: no binding (tested: 2 µg/ml antibody)
[11]
  binding result: no binding (tested: 2 µg/ml antibody)
[12]
  binding result: no binding (tested: 2 µg/ml antibody)

## B4
2G7 HMGB1 mAb [13]
  binding result: binds
2E11 HMGB1 mAb [14]
  binding result: no binding

## B5
2E11 HMGB1 mAb [15]
  binding result: binds

## B6
2G7 HMGB1 mAb [16]
  binding result: no binding (tested: up to 243 µM peptide)
